# Patent publication US20240216557A1 (Memorial Sloan Kettering, published 2024)
# What was measured:
# [1] = target: T1, Recombinant Human DLL3 Protein (amino acids Ala27-Ala479, cat #9749-DL, R&D Systems) (human, UniProt Q9NYJ7 27-479); test: BLI, Octet HTX, 25 C; mAb on anti-mouse Fc sensors, DLL3 as analyte from 200 nM
# T1 construct: Bought protein
# T1 sequence: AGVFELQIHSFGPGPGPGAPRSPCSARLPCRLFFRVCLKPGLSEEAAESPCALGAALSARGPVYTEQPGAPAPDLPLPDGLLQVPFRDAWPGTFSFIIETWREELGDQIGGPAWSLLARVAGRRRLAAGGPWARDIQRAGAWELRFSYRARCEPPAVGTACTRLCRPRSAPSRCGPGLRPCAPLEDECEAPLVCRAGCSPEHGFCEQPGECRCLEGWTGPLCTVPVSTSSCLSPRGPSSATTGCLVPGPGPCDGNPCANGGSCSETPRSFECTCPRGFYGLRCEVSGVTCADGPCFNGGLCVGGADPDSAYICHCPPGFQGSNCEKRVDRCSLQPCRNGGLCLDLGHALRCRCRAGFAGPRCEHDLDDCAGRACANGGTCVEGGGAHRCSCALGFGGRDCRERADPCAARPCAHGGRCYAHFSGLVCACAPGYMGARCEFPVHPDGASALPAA
# [2] = target: T2, hDLL3 (human, UniProt Q9NYJ7 27-479, limits assumed); test: ELISA; signal unit not stated
# T2 construct: also called human DLL3
# T2 sequence: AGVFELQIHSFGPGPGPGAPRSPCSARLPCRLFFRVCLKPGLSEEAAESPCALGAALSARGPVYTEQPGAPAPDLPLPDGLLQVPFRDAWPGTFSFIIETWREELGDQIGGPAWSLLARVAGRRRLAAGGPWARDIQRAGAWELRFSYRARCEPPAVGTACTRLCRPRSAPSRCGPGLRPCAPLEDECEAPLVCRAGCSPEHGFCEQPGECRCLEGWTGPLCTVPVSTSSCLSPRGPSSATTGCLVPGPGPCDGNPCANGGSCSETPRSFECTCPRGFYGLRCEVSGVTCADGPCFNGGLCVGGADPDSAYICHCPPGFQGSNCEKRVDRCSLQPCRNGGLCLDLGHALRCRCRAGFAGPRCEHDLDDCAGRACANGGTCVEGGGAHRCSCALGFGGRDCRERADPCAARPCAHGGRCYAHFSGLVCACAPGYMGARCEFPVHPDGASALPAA
# [3] = target: hDLL4 (human, UniProt Q9NR61 27-524, limits assumed); test: ELISA; signal unit not stated
# [4] = target: T2, hDLL3; test: method not stated (column 'Affinity hDLL3')
# [5] = target: T3, DLL3 on H82 xenograft tumor cells (UniProt Q9NYJ7 27-618, limits assumed); test: immunoPET imaging of athymic mice bearing right flank subcutaneous H82 xenografts after tail vein injection of the Zr-89 labelled antibody; time point not printed on the sheet
# T3 construct: whole, on cells; H82 is a human SCLC line by general knowledge
# T3 sequence (looked up): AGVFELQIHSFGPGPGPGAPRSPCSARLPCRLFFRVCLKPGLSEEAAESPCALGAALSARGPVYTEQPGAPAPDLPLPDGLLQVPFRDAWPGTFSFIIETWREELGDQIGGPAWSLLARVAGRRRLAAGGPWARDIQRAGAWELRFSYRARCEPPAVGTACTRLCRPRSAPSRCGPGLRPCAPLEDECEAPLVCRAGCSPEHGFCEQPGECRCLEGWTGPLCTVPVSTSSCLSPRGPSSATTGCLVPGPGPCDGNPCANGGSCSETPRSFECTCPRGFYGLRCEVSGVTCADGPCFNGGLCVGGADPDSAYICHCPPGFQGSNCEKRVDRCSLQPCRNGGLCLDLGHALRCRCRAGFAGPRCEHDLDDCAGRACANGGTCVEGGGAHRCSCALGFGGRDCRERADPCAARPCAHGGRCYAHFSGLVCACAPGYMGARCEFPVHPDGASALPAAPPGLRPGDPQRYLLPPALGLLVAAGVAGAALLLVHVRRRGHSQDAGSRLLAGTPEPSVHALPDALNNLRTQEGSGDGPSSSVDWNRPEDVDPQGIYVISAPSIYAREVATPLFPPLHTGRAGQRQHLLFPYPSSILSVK
# Sequence of hDLL4 (Q9NR61 27-524 limits assumed): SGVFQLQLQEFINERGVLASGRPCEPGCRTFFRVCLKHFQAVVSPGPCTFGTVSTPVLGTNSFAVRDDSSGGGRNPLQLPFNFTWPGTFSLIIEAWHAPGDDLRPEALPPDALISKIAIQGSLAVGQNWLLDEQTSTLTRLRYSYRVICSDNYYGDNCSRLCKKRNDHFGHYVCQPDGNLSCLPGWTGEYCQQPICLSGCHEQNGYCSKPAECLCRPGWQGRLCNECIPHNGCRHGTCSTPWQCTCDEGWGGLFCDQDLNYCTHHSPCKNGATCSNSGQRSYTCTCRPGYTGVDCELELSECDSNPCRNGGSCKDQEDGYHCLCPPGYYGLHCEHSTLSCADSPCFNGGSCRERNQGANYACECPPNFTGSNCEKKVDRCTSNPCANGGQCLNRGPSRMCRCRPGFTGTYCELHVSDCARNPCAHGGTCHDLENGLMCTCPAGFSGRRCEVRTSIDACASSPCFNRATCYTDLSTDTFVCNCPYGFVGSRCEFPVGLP
Binder,Kd [1] [nM],other results
"G3 (antibody, V domains shown, Purified hybridoma monoclonal antibody; loaded on anti-mouse Fc sensors in BLI) VH: QVQLQESGPGLVKPSETLFLTCTVSGGSISSYYWTWIRQPAGKGLEWIGRIYTSGSTNYNPSLKSRVTMSVDTSKNQFSLKLSSVTAADTAVYYCAREDWESWTFDIWGQGTMVTVSS VL: not shown",0.908,
"L22 (antibody, V domains shown) VH: EVQLLESGGGLVQPGGSLRLSCAASGFTFSSYAMGWVRQTPGKGLEWVSTISGRGGDTYYADSVKGRFTISRDNSKNTLYLQMNSLRAEDTAIYYCAKERGLGFDYWGQGTLVTVSS VL: DIVMTQTPLSLPVTPGEPASISCRSSQSLLDSDDGNTYLDWYLQKPGQSPQLLIYTLSYRASGVPDRFSGSGSGTDFTLKISRVEAEDVGVYYCMQHLEFPLTFGGGTKVEIK",3.55,ELISA hDLL3 [2]: 1.64; ELISA hDLL4 [3]: 0.056; Kd [4]: 1.46 nM
"F21 (antibody, V domains shown, Purified hybridoma monoclonal antibody; loaded on anti-mouse Fc sensors in BLI) VH: EVQLVESGGGLVQPGGSLRLSCAASGFTFSSYWMSWVRQAPGKGLEWVANIKQDGSEKYYVDSVKGRFTISRDNAKNSLYLQMNSLRAEDTAVYYCAREWLRFGGLVYWGQGTLVTVSS VL: not shown",6.12,
"F9 (antibody, V domains shown, also called 1F9) VH: QVQLVQSGAEVKKPGASVQVSCKASGYTFTSYYMHWVRQAPGQGLEWMGIINPSGGSTSYAQKFQGRVTMTRDTSTSTVYMELSSLRSEDTAVYYCARQGGAQWLVLAFDIWGQGTMVTVSS VL: EIVLTQSPGTLSLSPGERATLSCRASQSVSSYLAWYQQKPGQPPRLLIYGASSRATGIPDRFSGGGSGTDFTLTISRLEPEDFAVYYCQQYDSSPYTFGQGTKLEIK",3.01,
"G16 (antibody, V domains shown, Purified hybridoma monoclonal antibody; loaded on anti-mouse Fc sensors in BLI) VH: QVQLVQSGAEVKKPGASVQVSCKASGYTFTSYYMHWVRQAPGQGLEWMGIINPSGGSTSYAQKFQGRVTMTRDTSTSTVYMELSSLRSEDTAVYYCARQGGAQWLVLAFDIWGQGTMVTVSS VL: EIVLTQSPGTLSLSPGERATLSCRASQSVSSYLAWYQQKPGQAPRLLIYGASSRATGIPDRFSGGGSGTDFTLTISRLEPEDFAVYYCQQYGSSPYTFGQGTKLEIK",4.88,
"J8 (antibody, V domains shown) VH: QVHLVQSGAEVKKPGASVKVSCKASGYTFTIYYIHWVRQAPGQGLEWMGIINPSGGSTSYAQKFQGRVTMTRDTSTSTVYMELSSLRSEDTAVYYCSGNDYVDYVTTDYYGMDVWGQGTTVTVSS VL: DIQMTQSPSSLSASVGDRVTITCRASQGISNYLAWFQQKPGKAPKSLIYAASSLQSGVPSKFSGSGSGTDFTLTISSLQPEDFATYYCQQYNSSPYTFGQGTKLEIK",0.001,ELISA hDLL3 [2]: 1.38; ELISA hDLL4 [3]: 0.085; Kd [4]: < 0.001 nM
"E9 (antibody, V domains shown, Purified hybridoma monoclonal antibody (Ablexis AlivaMab Kappa mice); loaded on anti-mouse Fc sensors in BLI) VH: QVQLVQSGAEVKKPGASVKVSCKASGYTFTSYYMHWVRQAPGQGLEWMGVINSSGGSTSYAQKFQGRVTMTRDTSTSTVYMDLSSLRSEDTAVYYCARGYCTNGVYYDEDFDYWGQGTLVTVSS VL: DIQMTQSPSSLSASVGDRVTITCRASQGISHYLAWFQQKPGKAPTSLIYAASSLQSGVPSKFSGSGSGTDFTLTISSLQPEDFATYYCQQYNSYPLTFGGGTKVEIK",0.3,
"O24 (antibody, V domains shown, the description prints the designation as '024' (zero); also called 024) VH: QVQLVQSGAEVKKPGASVKVSCKASGYTFTSYYLHWVRQAPGHGLEWMAIINPSGGSTSYAQKFLGRVTMTRDTSTNTVYMELSSLRSEDTAVYYCARERQQLDYYYFAMDVWGQGTTVTVSS VL: DIQMTQSPSSLSASVGDRVTITCRASQGISNYLAWFQQKPGKAPKSLIYAASSLQSGVPSKFSGSGSGTDFTLTISSLQPEDFATYYCQQYNSYPPTFGQGTKVEIK",1.28,
"B2 (antibody, V domains shown) VH: QVQLVQSGAEVKKPGASVKVSCKASGYTFTSYYMHWVRQAPGQGLEWMGIINPSGGSTSYAQKFRGRVTMTRDTSTSTVYMELSSLRSEDTAVYYCARGDYDILTDYYYNMDVWGQGTTVTVSS VL: DIQMTQSPSAMSASVGDRVTITCRASQGISNYLAWFQQKPGKVPKRLIYAASSLQSGVPSRFSGSGSGTEFTLTISSLQPEDFATYYCLQHNSYPYTFGQGTKLEIK",1.46,ELISA hDLL3 [2]: 1.21; ELISA hDLL4 [3]: 0.043
"B22 (antibody, V domains shown, Purified hybridoma monoclonal antibody; loaded on anti-mouse Fc sensors in BLI) VH: EVQLVESGGGLVQPGGSLRLSCAASGFTFNNFWMSWVRQAPGKGLEWVANIKQDGSEKYYVDSVKGRFTISRDNAKNSLYLQMNSLRAEDTAVYYCARESYFDLWGRGTLVTVSS VL: QAVVTQESALTTSPGETVTLTCRSSTGAVTTSNYANWVQEKPDHLFTGLIGGTNNRAPGVPARFSGSLIGDKAALTITGAQTEDEAIYFCALWYSNRWVFGGGTKLTVL",1.84,
"E23 (antibody, V domains shown, loaded on anti-mouse Fc sensors in BLI) VH: QVQLVQSGAEVRKPGASVKVSCKASGYTFTGYYMHWVRQAPGQGLEWMGWINSYSGGANYAQKFQDRVTMTRDTSVSTASMELSRLRSDDTAVYYCARDGSGWYGSYFDFWGQGTLVTVSS VL: DIVMTQTPLSSPVTLGQPASISCRSSQSLVHSDGNTYLSWLQQRPGQPPRLLIYKISNRFSGVPDRFSGSGAGTDFTLKISRVEAEDVGFYYCIQTTQFPLTFGGGTKVEIK",0.511,
"D8 (antibody, V domains shown, Purified hybridoma monoclonal antibody; loaded on anti-mouse Fc sensors in BLI) VH: QVQLVQSGAEVKKPGASVKVSCKASGYTFTTYYMHWVRQAPGQGLEWMGIINPSGGSTSYAQKFQGRVTMTRDTSTSTVYMELSSLRSEDTAVYYCARQGHYIGNYLDYWGQGTLVTVSS VL: not shown",0.438,
"C22 (antibody, V domains shown, Purified hybridoma monoclonal antibody; loaded on anti-mouse Fc sensors in BLI) VH: QVQLVQSGAEVKKPGASVKVSCKASGYTFTSYYMHWVRQAPGQGLEWMGIINPSGGSTSYAQKFQGRVTMTRDTSTSTVYMELSSLRSEDTAVYYCARVADIVGATFDYWGQGTLVTVSS VL: not shown",0.431,
"L12 (antibody, V domains shown, Purified hybridoma monoclonal antibody; loaded on anti-mouse Fc sensors in BLI) VH: QVQLVQSGAEVKKPGASVKVSCKASGYTFTSYYMHWVRQAPGQGLEWMGIINPSGGSRSYAQKFQGRVTMTRDTSTSTVYMELSSLRSEDTAVYYCARQLELLGNAFDIWGQGTMVTVSS VL: not shown",3.1,
"J23 (antibody, V domains shown, Purified hybridoma monoclonal antibody; loaded on anti-mouse Fc sensors in BLI) VH: QVQLVQSGAEVKKPGASVKVSCKASGYTFTSYYMHWVRQAPGQGLEWMGIINYSGGSKSYAQKFQGRVTMTRDTSTSTVYMELSSLRSEDTGVYYCARQGRYSGSYLDYWGQGTLVTVSS VL: not shown",0.998,
"M11 (antibody, V domains shown, Purified hybridoma monoclonal antibody; loaded on anti-mouse Fc sensors in BLI) VH: QVQLVQSGAEVKKPGASVKVSCKASGYTFTSYYIHWVRQAPGQGLEWMGIINPSGGSKSYAQKFQGRVTMTRDTSTGTVYMELSSLRSEDTAVYYCAGQLELLGNAFDIWGQGTMVTVSS VL: not shown",2.76,
"P4 (antibody, V domains shown, Purified hybridoma monoclonal antibody; loaded on anti-mouse Fc sensors in BLI) VH: EVQLVESGGGLVKPGGSLRLSCAASGFTFSFYSMNWVRQAPGKGLEWVSSISSSSSYIYYADSVKGRFTISRDNAKNSLYLQMNSLRAEDTAVYYCARNYDFWRGAFDIWGQGTMVTVSS VL: not shown",6.5,
"[89Zr]Zr-DFO-A18 antibody (antibody, V domains shown, p-SCN-Bn-DFO chelator bioconjugated to the antibody (sites not given), radiolabeled with Zr-89, also called A18 (monoclonal IgG4, DFO-conjugated, Zr-89 labeled)) VH: QVTLRESGPALVKSTQTLTLTCTFSGFSLSTSGMCVSWIRQTPGKALEWLALIDWDDNKYYSTSLKTRLIISKDTSKNQVVLTMTNMEPVDTATYYCARIRGYSGSYDAFDIWGQGTMVTVSS VL: DIVMTQSPLSLPVTPGEPASISCRSSQSLLHSNGYNYLDWYLQKPGQSPHILLYLGSNRAPGVPDRFSGSGSGTDFTLKISRVEAEDVGVYYCMQALQTPFTFGPGTKVDIK",,binding result [5]: binds
"A18 (antibody, V domains shown, Purified hybridoma monoclonal antibody) VH: QVTLRESGPALVKSTQTLTLTCTFSGFSLSTSGMCVSWIRQTPGKALEWLALIDWDDNKYYSTSLKTRLIISKDTSKNQVVLTMTNMEPVDTATYYCARIRGYSGSYDAFDIWGQGTMVTVSS VL: DIVMTQSPLSLPVTPGEPASISCRSSQSLLHSNGYNYLDWYLQKPGQSPHILLYLGSNRAPGVPDRFSGSGSGTDFTLKISRVEAEDVGVYYCMQALQTPFTFGPGTKVDIK",0.236,
